Experimental data from US20250019454A1 (BIOCYTOGEN PHARMACEUTICALS BEIJING, published 2025).

Assays:
[1] = target: T1, ΔCRD4-TNFR2 protein (with CRD4 deletion), on CHO-S cells (human, UniProt P20333 23-461); assay: FACS on CHO-S cells with ΔCRD4-TNFR2
T1 construct: also called CHO-SΔCRD4-TNFR2; TNFR2 lacking CRD4
T1 sequence: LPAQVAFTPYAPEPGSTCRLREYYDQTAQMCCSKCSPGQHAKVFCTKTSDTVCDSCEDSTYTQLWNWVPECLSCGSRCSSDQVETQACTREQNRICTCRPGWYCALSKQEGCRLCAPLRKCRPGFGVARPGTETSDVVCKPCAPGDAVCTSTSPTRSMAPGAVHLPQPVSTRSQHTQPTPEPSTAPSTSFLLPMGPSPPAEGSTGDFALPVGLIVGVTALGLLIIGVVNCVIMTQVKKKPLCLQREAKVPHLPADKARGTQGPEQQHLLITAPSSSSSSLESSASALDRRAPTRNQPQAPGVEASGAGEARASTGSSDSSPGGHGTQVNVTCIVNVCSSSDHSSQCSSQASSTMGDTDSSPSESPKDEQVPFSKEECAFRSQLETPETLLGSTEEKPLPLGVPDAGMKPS
Text: TNFR2 has four cysteine rich domains (CRD). In another experiment, FACS was used to detect the binding of anti-hTNFR2 antibodies to TNFR2 proteins with different structural domains. Secondary antibody (Alexa Fluor® 647 AffiniPure F(ab′) 2 Fragment Goat Anti-Human IgG, Fcγ fragment specific, Jackson ImmunoResearch Laboratories, Inc., Cat #: 151524) was used. The fluorescence-labeled secondary antibody can attach to the Fc region of the anti-hTNFR2 antibodies so that the anti-hTNFR2 antibodies that are bound to the ΔCRD cells can be detected by FACS. Specifically, ΔCRD1-TNFR2 protein (with CRD1 deleteion), ΔCRD2-TNFR2 protein (with CRD2 deleteion), ΔCRD3-TNFR2 protein (with CRD3 deleteion) or ΔCRD4-TNFR2 protein (with CRD4 deleteion) were expressed in CHO-S cells respectively, and then the binding between the cells and different anti-hTNFR2 antibodies was detected.

[2] = target: T2, human TNFR2 (expressed on cells) (human, UniProt P20333 23-461); assay: cell-based or functional assay
T2 sequence: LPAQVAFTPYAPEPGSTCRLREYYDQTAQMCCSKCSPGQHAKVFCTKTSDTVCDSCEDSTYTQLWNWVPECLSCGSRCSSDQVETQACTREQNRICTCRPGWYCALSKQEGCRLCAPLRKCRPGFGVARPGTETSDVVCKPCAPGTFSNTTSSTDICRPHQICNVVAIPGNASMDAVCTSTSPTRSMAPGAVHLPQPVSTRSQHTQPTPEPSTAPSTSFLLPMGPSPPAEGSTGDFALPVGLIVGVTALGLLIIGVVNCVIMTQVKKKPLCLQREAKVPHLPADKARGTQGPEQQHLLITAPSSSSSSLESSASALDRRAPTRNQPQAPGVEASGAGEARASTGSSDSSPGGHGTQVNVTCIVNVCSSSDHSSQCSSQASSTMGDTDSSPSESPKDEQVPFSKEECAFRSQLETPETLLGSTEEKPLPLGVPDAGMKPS

B1: BC-1C3-IgG1 (antibody, V domains shown)
VH: QVQLVESGGGVVHPGKSLRLSCAASGFTFNIYGMHWVRQAPGKGLEWVALISYDGNDKYFADSVKGRFTISRDNSKNTLYLQMNSLRAEDTAVYYCAKAVDTAVVTFFDYWGQGTLVTVSS
VL: EIVMTQSPVTLSVSPGERATLSCRASQSVSSNLAWYQQKPGQAPRLLIYSASTRATGIPARFSGSGSGTEFTLTISSLQSEDLAVYYCQQYSNWPFTFGPGTKVDIK
notes: Human VH/VL joined to the human IgG1 subtype
binding result [1]: no binding
EC50 (read off the curve) [2]: ~0.4 µg/mL
